Values belong to the binder of their own block, whether it stands above or below them.
Assays:
Assay in all cases: cell-based or functional assay
ADAMTS5 = target: T1, ADAMTS5 (human, UniProt Q9UNA0 262-622, limits assumed)
T1 sequence (looked up): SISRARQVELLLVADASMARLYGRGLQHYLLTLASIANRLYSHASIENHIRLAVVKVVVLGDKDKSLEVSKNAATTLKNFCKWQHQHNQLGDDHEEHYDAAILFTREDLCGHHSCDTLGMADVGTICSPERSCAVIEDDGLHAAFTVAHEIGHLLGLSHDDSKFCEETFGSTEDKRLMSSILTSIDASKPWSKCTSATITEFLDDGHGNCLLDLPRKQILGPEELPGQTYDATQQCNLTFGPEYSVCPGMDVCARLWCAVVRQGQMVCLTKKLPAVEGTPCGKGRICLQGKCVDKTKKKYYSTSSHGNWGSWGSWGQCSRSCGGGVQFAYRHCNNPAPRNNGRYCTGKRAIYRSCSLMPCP

MMP7 = target: T2, MMP7 (UniProt P09237 95-267, limits assumed)
T2 sequence (looked up): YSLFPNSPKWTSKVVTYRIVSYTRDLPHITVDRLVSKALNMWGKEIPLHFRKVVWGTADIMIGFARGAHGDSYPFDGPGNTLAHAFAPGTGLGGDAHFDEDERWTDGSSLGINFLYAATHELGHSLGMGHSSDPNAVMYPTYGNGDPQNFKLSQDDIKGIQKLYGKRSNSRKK

Elastase = target: Elastase
MMP13 = MMP13 (human, UniProt P45452 104-471, limits assumed)
MMP2 = target: T3, MMP2 (human, UniProt P08253 110-660, limits assumed)
T3 sequence (looked up): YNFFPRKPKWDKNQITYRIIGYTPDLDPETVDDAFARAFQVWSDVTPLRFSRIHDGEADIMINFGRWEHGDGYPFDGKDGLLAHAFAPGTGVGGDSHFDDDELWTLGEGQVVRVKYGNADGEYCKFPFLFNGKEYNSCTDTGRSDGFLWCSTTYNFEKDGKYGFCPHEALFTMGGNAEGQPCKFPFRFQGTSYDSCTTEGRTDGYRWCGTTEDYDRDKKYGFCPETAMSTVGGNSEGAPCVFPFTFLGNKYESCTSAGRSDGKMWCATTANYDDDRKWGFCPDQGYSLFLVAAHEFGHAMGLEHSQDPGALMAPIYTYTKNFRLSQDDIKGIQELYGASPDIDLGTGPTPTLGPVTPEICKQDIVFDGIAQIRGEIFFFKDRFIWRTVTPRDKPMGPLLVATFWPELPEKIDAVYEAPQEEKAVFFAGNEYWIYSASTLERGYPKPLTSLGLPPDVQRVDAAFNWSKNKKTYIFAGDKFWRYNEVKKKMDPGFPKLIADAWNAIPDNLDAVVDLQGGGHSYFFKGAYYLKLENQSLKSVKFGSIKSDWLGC

Cathepsin G = target: T4, Cathepsin G (UniProt P08311 21-244)
T4 sequence (looked up): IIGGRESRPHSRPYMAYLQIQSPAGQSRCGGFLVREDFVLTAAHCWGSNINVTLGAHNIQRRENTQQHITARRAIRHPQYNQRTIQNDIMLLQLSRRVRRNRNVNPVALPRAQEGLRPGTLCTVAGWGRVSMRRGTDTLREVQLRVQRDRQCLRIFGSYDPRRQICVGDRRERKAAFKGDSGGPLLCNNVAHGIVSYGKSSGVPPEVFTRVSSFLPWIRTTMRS

MMP9 = MMP9 (human, UniProt P14780 107-707, limits assumed)
Sequence of MMP9 (P14780 107-707 limits assumed): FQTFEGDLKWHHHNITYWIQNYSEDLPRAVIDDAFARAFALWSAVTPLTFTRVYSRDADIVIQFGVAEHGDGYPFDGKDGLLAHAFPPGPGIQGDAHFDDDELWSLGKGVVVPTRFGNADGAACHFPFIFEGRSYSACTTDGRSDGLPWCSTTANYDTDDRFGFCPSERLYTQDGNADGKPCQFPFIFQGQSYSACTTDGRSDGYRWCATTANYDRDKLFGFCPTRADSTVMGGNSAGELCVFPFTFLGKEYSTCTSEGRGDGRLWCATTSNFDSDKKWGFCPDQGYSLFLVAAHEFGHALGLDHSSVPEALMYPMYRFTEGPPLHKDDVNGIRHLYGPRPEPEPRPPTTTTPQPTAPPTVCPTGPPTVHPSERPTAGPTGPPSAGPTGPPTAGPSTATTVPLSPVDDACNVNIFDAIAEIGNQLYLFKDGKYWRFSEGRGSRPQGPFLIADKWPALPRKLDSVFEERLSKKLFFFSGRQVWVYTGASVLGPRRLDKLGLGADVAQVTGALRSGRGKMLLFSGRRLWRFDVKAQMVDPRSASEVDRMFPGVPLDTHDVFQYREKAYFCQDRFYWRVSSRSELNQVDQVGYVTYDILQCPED

MMP1 = target: T5, MMP1 (human, UniProt P03956 100-469, limits assumed)
T5 sequence (looked up): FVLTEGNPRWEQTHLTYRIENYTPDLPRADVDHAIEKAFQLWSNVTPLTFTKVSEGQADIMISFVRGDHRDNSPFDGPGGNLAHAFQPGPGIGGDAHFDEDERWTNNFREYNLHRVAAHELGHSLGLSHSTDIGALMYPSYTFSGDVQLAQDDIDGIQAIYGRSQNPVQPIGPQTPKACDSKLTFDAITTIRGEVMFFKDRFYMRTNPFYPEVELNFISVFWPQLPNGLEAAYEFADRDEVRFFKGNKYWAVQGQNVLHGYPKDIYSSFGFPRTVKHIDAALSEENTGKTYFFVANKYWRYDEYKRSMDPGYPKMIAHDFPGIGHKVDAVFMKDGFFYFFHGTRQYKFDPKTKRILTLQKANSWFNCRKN

MMP8 = MMP8 (human, UniProt P22894 101-467, limits assumed)
Sequence of MMP8 (P22894 101-467 limits assumed): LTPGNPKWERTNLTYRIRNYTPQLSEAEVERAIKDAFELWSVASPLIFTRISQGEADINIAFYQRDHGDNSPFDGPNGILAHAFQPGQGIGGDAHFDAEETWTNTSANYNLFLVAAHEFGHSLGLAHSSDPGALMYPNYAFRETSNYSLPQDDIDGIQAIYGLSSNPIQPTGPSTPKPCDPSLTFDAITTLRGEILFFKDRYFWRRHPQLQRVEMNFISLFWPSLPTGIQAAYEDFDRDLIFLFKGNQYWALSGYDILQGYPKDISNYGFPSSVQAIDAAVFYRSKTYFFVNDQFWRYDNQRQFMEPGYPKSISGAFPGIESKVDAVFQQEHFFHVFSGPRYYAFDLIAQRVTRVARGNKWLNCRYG

MMP3 = MMP3 (human, UniProt P08254 100-477, limits assumed)
Sequence of MMP3 (P08254 100-477 limits assumed): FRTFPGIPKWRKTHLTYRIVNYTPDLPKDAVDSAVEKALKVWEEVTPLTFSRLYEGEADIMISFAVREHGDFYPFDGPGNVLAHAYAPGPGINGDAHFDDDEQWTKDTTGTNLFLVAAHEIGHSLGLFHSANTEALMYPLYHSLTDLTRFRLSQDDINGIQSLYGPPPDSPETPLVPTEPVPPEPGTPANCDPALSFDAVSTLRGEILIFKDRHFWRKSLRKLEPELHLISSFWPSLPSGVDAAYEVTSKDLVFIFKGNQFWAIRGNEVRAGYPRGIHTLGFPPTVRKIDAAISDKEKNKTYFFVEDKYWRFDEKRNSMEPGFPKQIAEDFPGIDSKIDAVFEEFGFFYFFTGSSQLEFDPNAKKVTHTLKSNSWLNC

Protease Inhibition (% of WT) (ADAMTS5): 530 % of WT | Protease Inhibition (% of WT) (MMP7): 137 % of WT | Protease Inhibition (% of WT) (Elastase): 115 % of WT | Protease Inhibition (% of WT) (MMP13): 89 % of WT | Protease Inhibition (% of WT) (MMP2): 36 % of WT | Protease Inhibition (% of WT) (Cathepsin G): 90 % of WT | Protease Inhibition (% of WT) (MMP9): 39 % of WT | Protease Inhibition (% of WT) (MMP1): 100 % of WT | Protease Inhibition (% of WT) (MMP8): 51 % of WT | Protease Inhibition (% of WT) (MMP3): 140 % of WT
B1: Variant A2M, bait region SEQ ID NO 19 (other)
chain: SVSGKPQYMVLVPSLLHTETTEKGCVLLSYLNETVTVSASLESVRGNRSLFTDLEAENDVLHCVAFAVPKSSSNEEVMFLTVQVKGPTQEFKKRTTVMVKNEDSLVFVQTDKSIYKPGQTVKFRVVSMDENFHPLNELIPLVYIQDPKGNRIAQWQSFQLEGGLKQFSFPLSSEPFQGSYKVVVQKKSGGRTEHPFTVEEFVLPKFEVQVTVPKIITILEEEMNVSVCGLYTYGKPVPGHVTVSICRKYSDASDCHGEDSQAFCEKFSGQLNSHGCFYQQVKTKVFQLKRKEYEMKLHTEAQIQEEGTVVELTGRQSSEITRTITKLSFVKVDSHFRQGIPFFGQVRLVDGKGVPIPNKVIFIRGNEANYYSNATTDEHGLVQFSINTTNVMGTSLTVRVNYKDRSPCYGYQWVSEEHEEAHHTAYLVFSPSKSFVHLEPMSHELPCGHTQTVQAHYILNGGTLLGLKKLSFYYLIMAKGGIVRTGTHGLLVKQEDMKGHFSISIPVKSDIAPVARLLIYAVLPTGDVIGDSAKYDVENCLANKVDLSFSPSQSLPASHAHLRVTAAPQSVCALRAVDQSVLLMKPDAELSASSVYNLLPEKDLTGFPGPLNDQDDEDCINRHNVYINGITYTPVSSTNEKDMYSFLEDMGLKAFTNSKIRKPKMCPQLEHGPEGEGEGEFRGVTIPENFYGVSEDLVVQISELEGRGSVEEPHTKLRKYFPETWIWDLVVVNSAGVAEVGVTVPDTITEWKAGAFCLSEDAGLGISSTASLRAFQPFFVELTMPYSVIRGEAFTLKATVLNYLPKCIRVSVQLEASPAFLAVPVEKEQAPHCICANGRQTVSWAVTPKSLGNVNFTVSAEALESQELCGTEVPSVPEHGRKDTVIKPLLVEPEGLEKETTFNSLLCPSGGEVSEELSLKLPPNVVEESARASVSVLGDILGSAMQNTQNLLQMPYGCGEQNMVLFAPNIYVLDYLNETQQLTPEIKSKAIGYLNTGYQRQLNYKHYDGSYSTFGERYGRNQGNTWLTAFVLKTFAQARAYIFIDEAHITQALIWLSQRQKDNGCFRSSGSLLNNAIKGGVEDEVTLSAYITIALLEIPLTVTHPVVRNALFCLESAWKTAQEGDHGSHVYTKALLAYAFALAGNQDKRKEVLKSLNEEAVKKDNSVHWERPQKPKAPVGHFYEPQAPSAEVEMTSYVLLAYLTAQPAPTSEDLTSATNIVKWITKQQNAQGGFSSTQDTVVALHALSKYGAATFTRTGKAAQVTIQSSGTFSSKFQVDNNNRLLLQQVSLPELPGEYSMKVTGEGCVYLQTSLKYNILPEKEEFPFALGVQTLPQTCDEPKAHTSFQISLSVSYTGSRSASNMAIVDVKMVSGFIPLKPTVKMLERSNHVSRTEVSSNHVLIYLDKVSNQTLSLFFTVLQDVPVRDLKPAIVKVYDYYETDEFAIAEYNAPCSKDLGNADYKDDDDKGASHHHHHH

Protease Inhibition (% of WT) (ADAMTS5): 114 % of WT | Protease Inhibition (% of WT) (MMP7): 138 % of WT | Protease Inhibition (% of WT) (Elastase): 79 % of WT | Protease Inhibition (% of WT) (MMP13): 54 % of WT | Protease Inhibition (% of WT) (MMP2): 16 % of WT | Protease Inhibition (% of WT) (Cathepsin G): 161 % of WT | Protease Inhibition (% of WT) (MMP9): 13 % of WT | Protease Inhibition (% of WT) (MMP1): 109 % of WT | Protease Inhibition (% of WT) (MMP8): 43 % of WT | Protease Inhibition (% of WT) (MMP3): 33 % of WT
B2: Variant A2M, bait region SEQ ID NO 27 (other)
chain: SVSGKPQYMVLVPSLLHTETTEKGCVLLSYLNETVTVSASLESVRGNRSLFTDLEAENDVLHCVAFAVPKSSSNEEVMFLTVQVKGPTQEFKKRTTVMVKNEDSLVFVQTDKSIYKPGQTVKFRVVSMDENFHPLNELIPLVYIQDPKGNRIAQWQSFQLEGGLKQFSFPLSSEPFQGSYKVVVQKKSGGRTEHPFTVEEFVLPKFEVQVTVPKIITILEEEMNVSVCGLYTYGKPVPGHVTVSICRKYSDASDCHGEDSQAFCEKFSGQLNSHGCFYQQVKTKVFQLKRKEYEMKLHTEAQIQEEGTVVELTGRQSSEITRTITKLSFVKVDSHFRQGIPFFGQVRLVDGKGVPIPNKVIFIRGNEANYYSNATTDEHGLVQFSINTTNVMGTSLTVRVNYKDRSPCYGYQWVSEEHEEAHHTAYLVFSPSKSFVHLEPMSHELPCGHTQTVQAHYILNGGTLLGLKKLSFYYLIMAKGGIVRTGTHGLLVKQEDMKGHFSISIPVKSDIAPVARLLIYAVLPTGDVIGDSAKYDVENCLANKVDLSFSPSQSLPASHAHLRVTAAPQSVCALRAVDQSVLLMKPDAELSASSVYNLLPEKDLTGFPGPLNDQDDEDCINRHNVYINGITYTPVSSTNEKDMYSFLEDMGLKAFTNSKIRKPKMCPQLEQYEMHGPEGEGEGEGIPENFYGVSEDLYTASELEGRGSVEEPHTKLRKYFPETWIWDLVVVNSAGVAEVGVTVPDTITEWKAGAFCLSEDAGLGISSTASLRAFQPFFVELTMPYSVIRGEAFTLKATVLNYLPKCIRVSVQLEASPAFLAVPVEKEQAPHCICANGRQTVSWAVTPKSLGNVNFTVSAEALESQELCGTEVPSVPEHGRKDTVIKPLLVEPEGLEKETTFNSLLCPSGGEVSEELSLKLPPNVVEESARASVSVLGDILGSAMQNTQNLLQMPYGCGEQNMVLFAPNIYVLDYLNETQQLTPEIKSKAIGYLNTGYQRQLNYKHYDGSYSTFGERYGRNQGNTWLTAFVLKTFAQARAYIFIDEAHITQALIWLSQRQKDNGCFRSSGSLLNNAIKGGVEDEVTLSAYITIALLEIPLTVTHPVVRNALFCLESAWKTAQEGDHGSHVYTKALLAYAFALAGNQDKRKEVLKSLNEEAVKKDNSVHWERPQKPKAPVGHFYEPQAPSAEVEMTSYVLLAYLTAQPAPTSEDLTSATNIVKWITKQQNAQGGFSSTQDTVVALHALSKYGAATFTRTGKAAQVTIQSSGTFSSKFQVDNNNRLLLQQVSLPELPGEYSMKVTGEGCVYLQTSLKYNILPEKEEFPFALGVQTLPQTCDEPKAHTSFQISLSVSYTGSRSASNMAIVDVKMVSGFIPLKPTVKMLERSNHVSRTEVSSNHVLIYLDKVSNQTLSLFFTVLQDVPVRDLKPAIVKVYDYYETDEFAIAEYNAPCSKDLGNADYKDDDDKGASHHHHHH

From US20230250154A1 (CYTONICS, published 2023)
